Read-outs that look alike come from different tables or passages of the source.
Tests used:
crystal structure = biological target: the molecule itself; test: crystal structure
Cch [1] = biological target: T1, Cch (Staphylococcus aureus USA300, UniProt A0A0H2XHF3 1-595); test: EMSA
CchWH = CchWH (Staphylococcus aureus USA300, UniProt A0A0H2XHF3 436-595); test: EMSA
Cch [2] = biological target: T1, Cch; test: EMSA; remark: listed apart in the source
LP1413 = biological target: T2, LP1413 (Staphylococcus aureus USA300, UniProt Q0WXP5 1-96); test: EMSA
T2 sequence: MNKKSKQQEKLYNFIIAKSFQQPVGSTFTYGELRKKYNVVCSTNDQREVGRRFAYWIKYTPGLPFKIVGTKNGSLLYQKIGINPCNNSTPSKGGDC

B1: Selenomethionine-derivatized Cch-6xHis (enzyme)
chain: MSYTLFEIGPFALDSFGWKETIPPKKDGDSEKVVRMASPIIVNARFSDPITGVEKLIITNNNGKKDIFESDILTTRNLPSLIKYGYSINEKYIRSLSYALQLMRDRLPLSELYEGVGILETPFGYLISLDKVLKSIQFNQSSPSYPIVDSAYDLTPKGTFDNWFNMYIDEVKGHLLLELAVIFGISALVTSFLKHKHEIEFAGILFSFTGQSSTGKSTAAALAVSVAGNPTKGNETLFRSWNATRNALEGYLSNNYGIPIVFDELSSTTLRDTTGLLYSIAEGQGRQRSNVHGEVKTPKNWGTSVISTSEYSIFNDSAQNDGLRVRTIEINEQFTTNATNADNIKKAVALNYGHVLPLVAKYLINREDEVIQWFYKEVDWFEAKLKDETNNTGIRMFKRYAVITTSAKILGRVLSTDIDIANIRDYFIDYHTHTVSERSLADKAIDVIIQFVAQNRGKFSDEGALKNMFENYGLISLKDDHIEVKIIANVFKQMLNNHQFQDVNNVVNALRDKGFILADRGRQTTKRSVKDNSGKKQSLVFYHLKLDVEFASILGLTKDKSLLQNWTPSNDNKAAKELFKSANEGIGPSGVHEDF
modifications: selenomethionine in place of methionine
With B1 the “stoichiometry N” value (crystal structure) was 6.

B2: scc-emsa-3F/4R 60 bp duplex (3' end of cch) (dsDNA)
DNA 1: TTTTAAATCCGCTAATGAAGGGATAGGCCCTTCAGGAGTTCACGAAGATTTCTAATTGTC
DNA 2: GACAATTAGAAATCTTCGTGAACTCCTGAAGGGCCTATCCCTTCATTAGCGGATTTAAAA
B2: binds (Cch [1]); binds (CchWH).

B3: HELA-8R ssDNA (ssDNA)
DNA: CGCTTTAAAAGAAGTCAACGTCTTACCACTTCCAGTTGTATGCCATACATATCC
B3: binds (Cch [2]).

B4: iter-int-1F ssDNA 40 nt (ssDNA)
DNA: GAGTAATGATATGTGGCTATGTCTTAATATATGTGAAGAA
B4: binds (LP1413).

B5: iter-int-1F/inter-int-2R 40 bp duplex (dsDNA)
DNA 1: GAGTAATGATATGTGGCTATGTCTTAATATATGTGAAGAA
DNA 2: TTCTTCACATATATTAAGACATAGCCACATATCATTACTC
B5: no binding (LP1413).

— PMC5052118 (Nature structural & molecular biology, 2016)
